Experimental data from paper PMC4267727.

Biological target: E2 wild-type (E2wt) scaffold protein without an HIV-1 N-terminal fusion (Geobacillus stearothermophilus)
Assay: SEC; Superdex200 gel filtration of E2wt in Solubility Buffer 2.2 (1x PBS, 50 mM L-Glutamine, 50 mM NaCl, 250 mM L-Arginine), 1 ml/min

E2 wild-type (E2wt) scaffold protein without an HIV-1 N-terminal fusion (domain or fragment)
stoichiometry N: 60
